± gives the standard deviation of the averaged measurements.
Assays:
[1] = system: Saccharomyces cerevisiae; experiment: protein stability index of tFT-peptide fusion in wild type (PSI (0-1 scale)); higher = more stable (slower turnover); details: genetic background: wild type
[2] = system: Saccharomyces cerevisiae; experiment: protein stability index of tFT-peptide fusion (C-terminal peptide) (PSI (0-1 scale)); higher = more stable (slower turnover)
Procedure: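 MPS profiling in S. cerevisiae of the tFT-X12 degron library: putative degron peptides plus stable controls, 12 aa, fused to the C-terminus of a sfGFP-mCherry timer. Cells are FACS-sorted into 8 mCherry/sfGFP bins and deep-sequenced. PSI runs from 0 (unstable) to 1 (stable). Backgrounds are wild type, das1Δ and doa10Δ at 30 °C, and wild type, das1Δ, cdc34-1 and cdc53-1 at 37 °C; 2-3 technical replicates each.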

[3] = system: Saccharomyces cerevisiae; experiment: as above; details: genetic background: wild type; temperature: 30 C
[4] = system: Saccharomyces cerevisiae; experiment: protein stability index of tFT-peptide fusion in deletion strain of DOA10 (PSI (0-1 scale)); higher = more stable (slower turnover)
Procedure: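 MPS profiling in S. cerevisiae of two library types built from selected 12-aa C-degron peptides (IN1, IN2, LN1, LN3, VN2, R1-R5, W1-W3, Atg1 and Rpa12 C-termini): saturation mutagenesis libraries and C-terminal +1 capping libraries (13 aa). Each peptide is fused to the C-terminus of a sfGFP-mCherry timer, after a GGGS linker. Cells are FACS-sorted into 8 mCherry/sfGFP bins and sequenced. PSI runs from 0 (unstable) to 1 (stable), measured once in wild type and in the das1Δ or doa10Δ background.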
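Wherever protein stability index of tFT-peptide fusion (C-terminal peptide) is given: PSI is a weighted mean of sequencing reads over stability bins, variants kept only with over 10 reads, mCherry proximal and sfGFP distal, peptide attached via GGGS linker.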
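Wherever protein stability index of tFT-peptide fusion in deletion strain of DOA10 is given: PSI per variant is the weighted mean of its sequencing read distribution over the sorted stability bins, counting only variants with over 10 reads summed across bins.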
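Wherever protein stability index of tFT-peptide fusion in wild type is given: PSI derived as read-weighted mean over the 8 sorting bins, only variants exceeding 10 total reads kept, mCherry placed adjacent to the peptide and sfGFP distal.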

Row | Sequence | protein stability index [1] | protein stability index [4] | other results
1 | RVTRLDAIYFRI | 0.328 | 0.681 | protein stability index ([2]; genetic background: cdc34-1, temperature: 37 C): 0.265 ± 0.06; protein stability index ([2]; genetic background: cdc53-1, temperature: 37 C): 0.198 ± 0.0072; protein stability index ([2]; genetic background: das1 deletion, temperature: 30 C): 0.341 ± 0.031; protein stability index ([2]; genetic background: das1 deletion, temperature: 37 C): 0.351 ± 0.012; protein stability index ([2]; genetic background: doa10 deletion, temperature: 30 C): 0.717 ± 0.03; protein stability index ([2]; genetic background: wild type, temperature: 30 C): 0.312 ± 0.014; protein stability index ([2]; genetic background: wild type, temperature: 37 C): 0.323 ± 0.0054; protein stability index [3]: 0.381 ± 0.019
2 | GLYICSVGCWFR | 0.181 | 0.539 | 
3 | RVTRLDAIYFQI | 0.292 | 0.305 | 
4 | RVTLLDAIYFRI | 0.455 | 0.662 | 
5 | GLYMHSVGCWFR | 0.255 | 0.706 | 
6 | RVTRLDAISFRI | 0.691 | 0.727 | 
7 | RVTRLDAVYFRI | 0.442 | 0.68 | 
8 | RVTRLDAIWFRI | 0.22 | 0.676 | 
9 | RSLRMLLPLYFR | 0.376 | 0.615 | 
10 | RDTRLDAIYFRI | 0.563 | 0.644 | 
11 | RVTRLDAIYFRIW | 0.234 | 0.577 | 
12 | AITLPMCQLLLR | 0.174 | 0.663 | 
13 | RSLRVYLPLYFR | 0.268 | 0.678 | 
14 | GLYMCPVGCWFR | 0.26 | 0.664 | 
15 | RSLRVLLPLYFI | 0.255 | 0.528 | 
16 | RSLRVLLPLYFQ | 0.431 | 0.615 | 
17 | RSLRVLLPLYFRT | 0.268 | 0.655 | 
18 | AITLPMCPLLKR | 0.645 | 0.676 | 
19 | GKYMCSVGCWFR | 0.406 | 0.674 | 
20 | GLYMCSVGCWFS | 0.381 | 0.445 | 
21 | RVTRLDAIKFRI | 0.66 | 0.685 | 
22 | GLYMCSVGCWFRN | 0.286 | 0.584 | 
23 | CLVSLPILLPFR | 0.642 | 0.67 | 
24 | RSLRVLLPLYAR | 0.348 | 0.474 | 
25 | RVTRLMAIYFRI | 0.155 | 0.295 | 
26 | RSLRVILPLYFR | 0.197 | 0.675 | 
27 | RSLRVLLPLKFR | 0.431 | 0.67 | 
28 | AITLPMCPLLVR | 0.181 | 0.231 | 
